Measured values: US20080044423A1

Experiments:
Assay in all cases: cell-based or functional assay
[1] = molecular target: human IL-17A, untagged, E. coli derived (in house or Peprotech) (human) (UniProt Q16552)
[2] = molecular target: cynomolgus IL-17A (cynomolgus)
[3] = molecular target: human IL-17A derived from the HEK-EBNA expression system (human) (UniProt Q16552)
human IL-17A derived from the HEK-EBNA expression system (human), sequence (Q16552 24-155): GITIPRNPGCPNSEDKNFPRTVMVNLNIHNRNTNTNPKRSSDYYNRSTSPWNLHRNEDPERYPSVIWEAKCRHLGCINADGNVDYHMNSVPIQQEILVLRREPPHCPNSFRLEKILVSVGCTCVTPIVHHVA

human IL-17A, untagged, E. coli derived (in house or Peprotech) (human), sequence (Q16552 24-155): as above
cynomolgus IL-17A (cynomolgus), sequence (Q16552 other isoform, or with tags, fused parts or gaps limits assumed): as the sequence (Q16552 24-155) above, with T3A, P8S, N34S, I77V, N78K, P104R counted along it

OA synovial fibroblast IL-8 (IL-17A 1 ng/ml + TNF 0.01 ng/ml), % Inhibition at 50 nM antibody [1] [%] | OA synovial fibroblast IL-8 (IL-17A 10 ng/ml + TNF 1 ng/ml), % Inhibition at 50 nM antibody [1] [%] | cartilage explant IL-6 (IL-17A 10 ng/ml + TNF 1 ng/ml), % inhibition at 50 nM antibody [1] [%] | cartilage explant IL-6 (pg/ml), mean, IL-17A 10 ng/ml + TNF 1 ng/ml + antibody (55.00 pg/ml without antibody) [1] [pg/mL] | HT1080 IL-6 release, IgG IC50 [2] [nM] | HT1080 IL-6 release, IgG IC50 [3] [nM] | Substance
-1.3 | -3.9 | 3.3 | 53.2 |  |  | hIgG1 isotype control (human IgG1 CAT002, Cambridge Antibody Technology Limited)
 |  |  |  | 14.1 | 3.2 | mAb317 (R & D Systems) (antibody)
 |  | 13.8 | 47.4 |  |  | mIgG1 isotype control (mouse IgG1, R & D Systems) (antibody)
